Article PMC10766783 (Life Science Alliance, 2024)
Where two headings read alike, the source gives them in different places. Blank lines part the entries; values can stand above or below the molecule they belong to.

Assays:
[1] = molecular target: nivolumab; experiment: BLI; Octet RED96; antibodies captured on anti-human Fc AHC2 tips, PD-1 proteins as analyte at different concentrations; Octet kinetics buffer; 1:1 binding model
[2] = molecular target: camrelizumab; experiment: as above
[3] = molecular target: cemiplimab; experiment: as above
[4] = molecular target: pembrolizumab; experiment: as above
[5] = molecular target: T1, recombinant PD-1 N58Q mutant (human, UniProt Q15116, N58Q); experiment: ELISA; plate-based ligand blocking: plates coated with 5 ug/ml PD-1, PD-1 NF or PD-1 N58Q; antibodies 1 h at room temperature, washed, then 1 ug/ml PD-L1-Fc-biotin 2 h; streptavidin-HRP; details: both partners purified
T1 construct: PD-1, human, UniProt Q15116, residues 24-167 of the extracellular portion, N58Q; source: Expi293, transiently transfected, purified (Ni Sepharose Excel)

[6] = molecular target: non-fucosylated recombinant PD-1 (PD-1 NF) (human) (UniProt Q15116); experiment: as above
[7] = molecular target: T1, recombinant PD-1 N58Q mutant; experiment: BLI; Octet RED96; antibodies captured on anti-human Fc AHC2 tips, PD-1 proteins as analyte at different concentrations; Octet kinetics buffer; 1:1 binding model; details: both partners purified
[8] = molecular target: T2, full-length PD-1 on CHO-K1 Fut8 KO cells (human, UniProt Q15116, N-glycans without core fucose (Fut8 KO host)); experiment: flow cytometry on cells; ligand blocking: PD-1-transfected CHO-K1 or CHO-K1 Fut8 KO cells incubated with antibodies 15 min on ice before PD-L1:SA-PE complexes; four-parameter logistic fit; details: one partner purified
T2 construct: PD-1, human, full length, on transfected cells; also called PD-1 expressed in CHO-K1 Fut8 KO; Fut8-deficient cells; source: CHO-K1 Fut8 KO, transfected, on cells

[9] = molecular target: T3, PD-1 on Jurkat-Lucia TCR-hPD-1 cells (Homo sapiens, UniProt Q15116); experiment: cell-based or functional assay
[10] = molecular target: T4, chimeric receptor with the extracellular and transmembrane domains of PD-1 and intracellular GFP, on CHO-K1 … (Homo sapiens, UniProt Q15116, N-glycans without core fucose (Fut8 KO host)); experiment: flow cytometry on cells; antibodies added to CHO-K1 or CHO-K1 Fut8 KO cells transfected with PD-1 (extracellular and transmembrane domains)-GFP, 30 min on ice; binding as percentage of PD-1 expression in GFP-positive cells; four-parameter logistic fit; details: one partner purified
T4 construct: PD-1, human, extracellular and transmembrane domains; differs in the host and so in the glycans; also called cell surface PD-1 (CHO-K1 Fut8 KO); source: CHO-K1 Fut8 KO, transfected, on cells

[11] = molecular target: T3, PD-1 on Jurkat-Lucia TCR-hPD-1 cells

T1 sequence (Q15116 24-167 N58Q): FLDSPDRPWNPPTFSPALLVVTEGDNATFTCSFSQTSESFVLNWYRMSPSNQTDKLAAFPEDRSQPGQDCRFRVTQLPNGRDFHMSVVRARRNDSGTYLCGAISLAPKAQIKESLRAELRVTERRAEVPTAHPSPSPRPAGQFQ
T4 sequence (Q15116 whole entry, looked up, stated change not applied, the tested form may be a part): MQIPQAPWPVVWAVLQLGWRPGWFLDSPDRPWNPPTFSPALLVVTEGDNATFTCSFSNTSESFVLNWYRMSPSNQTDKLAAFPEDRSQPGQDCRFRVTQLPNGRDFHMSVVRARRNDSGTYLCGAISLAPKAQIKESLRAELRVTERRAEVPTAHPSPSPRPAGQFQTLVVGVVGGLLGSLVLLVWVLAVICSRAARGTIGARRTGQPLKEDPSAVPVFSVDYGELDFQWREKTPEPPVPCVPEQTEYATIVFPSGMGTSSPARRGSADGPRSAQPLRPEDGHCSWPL
Sequence of non-fucosylated recombinant PD-1 (PD-1 NF) (human) (Q15116 24-167): as the sequence (Q15116 24-167 N58Q) above, with Q35N counted along it
T3 sequence (Q15116 25-288): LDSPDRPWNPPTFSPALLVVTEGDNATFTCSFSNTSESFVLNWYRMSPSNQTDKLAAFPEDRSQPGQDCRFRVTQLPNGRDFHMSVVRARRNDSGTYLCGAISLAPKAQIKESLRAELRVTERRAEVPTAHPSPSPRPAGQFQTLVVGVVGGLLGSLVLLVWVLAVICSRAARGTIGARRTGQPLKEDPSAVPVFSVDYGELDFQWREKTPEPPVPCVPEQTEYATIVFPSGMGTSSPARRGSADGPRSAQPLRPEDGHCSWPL
T2 sequence (Q15116 25-288): as above
Sequence of nivolumab (heavy, as listed by the source, chain 1 of 2): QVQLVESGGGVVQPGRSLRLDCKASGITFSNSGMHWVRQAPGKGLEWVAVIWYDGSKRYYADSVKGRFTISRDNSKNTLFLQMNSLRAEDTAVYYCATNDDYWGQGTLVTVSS
Sequence of nivolumab (light, as listed by the source, chain 2 of 2): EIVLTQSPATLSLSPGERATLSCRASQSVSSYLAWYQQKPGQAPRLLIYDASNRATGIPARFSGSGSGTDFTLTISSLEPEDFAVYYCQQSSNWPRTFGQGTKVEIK
Sequence of pembrolizumab (heavy, as listed by the source, chain 1 of 2): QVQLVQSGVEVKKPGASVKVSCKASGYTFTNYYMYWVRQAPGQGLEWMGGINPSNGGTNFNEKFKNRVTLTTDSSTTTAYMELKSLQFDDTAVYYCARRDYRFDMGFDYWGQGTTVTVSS
Sequence of pembrolizumab (light, as listed by the source, chain 2 of 2): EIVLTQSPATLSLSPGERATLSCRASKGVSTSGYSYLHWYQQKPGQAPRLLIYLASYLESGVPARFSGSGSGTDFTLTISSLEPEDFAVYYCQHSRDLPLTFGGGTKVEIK

Kd [1]: 20.8 nM | Kd [2]: 380 nM | Kd [3]: 87.1 nM | Kd [4]: 3.67 nM
Molecule: non-fucosylated recombinant PD-1 (PD-1 NF) (from UniProt Q15116 24-167) (domain or fragment)

Kd [2]: 3.41 nM | Kd [3]: 2.95 nM
Molecule: recombinant PD-1 (extracellular portion of human PD-1, residues 24-167) (from UniProt Q15116 24-167) (domain or fragment)

IC50 [5]: 18 nM | IC50 [6]: 1.5 nM | Kd [7]: 449 nM | IC50 [8]: 5.6 nM | PD-1/PD-L1 reporter assay (Jurkat-Lucia TCR-hPD-1 with Raji-APC-hPD-L1, luciferase): blockade of PD-1:PD-L1, fold change of IC50, Jurkat cells pretreated with the fucose inhibitor against untreated [9]: 2.8 fold | fold change in EC50 (CHO-K1 Fut8 KO against wild-type CHO-K1) [10]: 3 fold
B1: camrelizumab (antibody, V domains shown)
VH: EVQLVESGGGLVQPGGSLRLSCAASGFTFSSYMMSWVRQAPGKGLEWVATISGGGANTYYPDSVKGRFTISRDNAKNSLYLQMNSLRAEDTAVYYCARQLYYFDYWGQGTTVTVSS
VL: DIQMTQSPSSLSASVGDRVTITCLASQTIGTWLTWYQQKPGKAPKLLIYTATSLADGVPSRFSGSGSGTDFTLTISSLQPEDFATYYCQQVYSIPWTFGGGTKVEIK
notes: Whole therapeutic anti-human PD-1 antibody; a human IgG4 isotype was the control and anti-human IgG4 or anti-human IgG the detection reagent; The PDB entry may hold only the variable part; source: bought: Selleck Chemicals

IC50 [5]: 1.4 nM | IC50 [6]: 0.6 nM | Kd [7]: 260 nM | IC50 [8]: 2.6 nM | fold change in EC50 (CHO-K1 Fut8 KO against wild-type CHO-K1) [10]: 1.3 fold | PD-1/PD-L1 reporter assay (Jurkat-Lucia TCR-hPD-1 with Raji-APC-hPD-L1, luciferase): blockade of PD-1:PD-L1, fold change of IC50, Jurkat cells pretreated with the fucose inhibitor against untreated [11]: 2.4 fold
B2: cemiplimab (antibody, V domains shown)
VH: EVQLLESGGVLVQPGGSLRLSCAASGFTFSNFGMTWVRQAPGKGLEWVSGISGGGRDTYFADSVKGRFTISRDNSKNTLYLQMNSLKGEDTAVYYCVKWGNIYFDYWGQGTLVTVSS
VL: DIQMTQSPSSLSASVGDSITITCRASLSINTFLNWYQQKPGKAPNLLIYAASSLHGGVPSRFSGSGSGTDFTLTIRTLQPEDFATYYCQQSSNTPFTFGPGTVVDFR
notes: Whole therapeutic anti-human PD-1 antibody; The PDB entry may hold only the variable part; source: bought: Selleck Chemicals
